# Measured values as given in article doi:10.1101/2024.10.03.616038 (2024).
# Biological target: SARS-CoV-2 Spike RBD, original (Wuhan) strain (SARS-CoV-2, UniProt P0DTC2)
# Test: SPR
row,Binder,Kd [nM]
1,"DXP-604 (IgG1) (antibody, V domains shown) VH: EVQLVESGGGLIQPGGSLRLSCAASGIIVSSNYMTWVRQAPGKGLEWVSVIYSGGSTFYADSVKGRFTISRDNSKNTLYLQMSSLRAEDTAVYYCARDLGPYGMDVWGQGTTVTVSS VL: DIQLTQSPSFLSASVGDRVTITCRASQGISSDLAWYQQKPGKAPNLLIYAASTLQSGVPSRFSGSGSGTEFTLTISSLQPEDFATYYCQQLNSDLYTFGQGTKLEIK",0.214
2,"LY-CoV1404 (IgG1) (antibody, V domains shown) VH: QITLKESGPTLVKPTQTLTLTCTFSGFSLSISGVGVGWLRQPPGKALEWLALIYWDDDKRYSPSLKSRLTISKDTSKNQVVLKMTNIDPVDTATYYCAHHSISTIFDHWGQGTLVTVSS VL: QSALTQPASVSGSPGQSITISCTATSSDVGDYNYVSWYQQHPGKAPKLMIFEVSDRPSGISNRFSGSKSGNTASLTISGLQAEDEADYYCSSYTTSSAVFGGGTKLTVL",0.977
3,"S2K146 (IgG1) (antibody, V domains shown) VH: QVQLVESGGVVVQPGGSLRLSCAASGFTFHDHTMHWVRQAPGKGLEWVSLITWNGGTIHYSDSVKGRFTISRDNSKNSLYLQMNSLRTEDTALYYCAKDLGRGGWYLPSDAWGQGTLVTVSS VL: not shown",0.0457
4,"REGN10987 (IgG1) (antibody, V domains shown) VH: QVQLVESGGGVVQPGRSLRLSCAASGFTFSNYAMYWVRQAPGKGLEWVAVISYDGSNKYYADSVKGRFTISRDNSKNTLYLQMNSLRTEDTAVYYCASGSDYGDYLLVYWGQGTLVTVSS VL: QSALTQPASVSGSPGQSITISCTGTSSDVGGYNYVSWYQQHPGKAPKLMIYDVSKRPSGVSNRFSGSKSGNTASLTISGLQSEDEADYYCNSLTSISTWVFGGGTKLTVL",14.5
5,"BD55-5840 (IgG1) (antibody, V domains shown) VH: VQLAQSGSELRKPGASVKVSCDTSGHSFTSNAIHWVRQAPGQGLEWMGWINTDTGTPTYAQGFTGRFVFSLDTSARTAYLQISSLKADDTAVFYCARERDYSDYFFDYWGQGTLVTVSS VL: EVVMTQSPASLSVSPGERATLSCRARASLGISTDLAWYQQRPGQAPRLLIYGASTRATGIPARFSGSGSGTEFTLTISSLQSEDSAVYYCQQYSNWPLTFGGGTKVEIK",0.0759
